What was measured:
[1] = target: recombinant protein HR212 (HR2–linker 1–HR1–linker 2–HR2) (SARS-CoV-2 Wuhan hu-1 strain); experiment: SPR; Biacore 3000; HR212 fixed to a flow cell of a CM5 sensor; HR1 at 12.5, 25, 50, 100, 200 nM flowed over; 25°C
[2] = target: recombinant protein HR212 (HR2–linker 1–HR1–linker 2–HR2) (SARS-CoV-2 Wuhan hu-1 strain); experiment: native gel or EMSA; native PAGE of purified HR212

“HR1 (heptad repeat 1 domain of the SARS-CoV-2 spike S2 subunit) (domain or fragment)” was tested, and the Kd [1] was 0.12 nM, the koff [1] was 1.4e-05 s⁻¹ and the kon [1] was 120000 M⁻¹ s⁻¹.
With “recombinant protein HR212 (HR2–linker 1–HR1–linker 2–HR2)” the stoichiometry N [2] was 3.

Reference: paper PMC11808191
